Measured values published in publication PMC9022998.

Columns and labels:
[1] = cycloheximide chase, anti-FLAG immunoblot, secretion rate; conditions: glycan lost; control: wild-type AAT in WT 293T cells
[2] = immunoblot of media and lysates, LMAN1 KO vs WT 293T; conditions: glycan lost; control: wild-type AAT
[3] = immunoblot of intracellular AAT in 293T lysates; conditions: glycan lost; control: wild-type AAT

| Substance | expression_or_secretion [1] | other: LMAN1-dependence of secretion [2] | localisation_or_trafficking [3] |
| --- | --- | --- | --- |
| α1-antitrypsin (AAT): N70Q | no change | no change |  |
| α1-antitrypsin (AAT): N107Q | decreases | abolishes | increases |
| α1-antitrypsin (AAT): N271Q | no change | no change |  |
